Results reported in patent US12534534 (F STAR BETA, dated 2026).

T1: human OX40-mFc (human, UniProt P43489 29-214)
T1 construct: produced in-house; negative control in the ELISA; also called human OX40-mFc-Avi; not shown: mFc part
T1 sequence: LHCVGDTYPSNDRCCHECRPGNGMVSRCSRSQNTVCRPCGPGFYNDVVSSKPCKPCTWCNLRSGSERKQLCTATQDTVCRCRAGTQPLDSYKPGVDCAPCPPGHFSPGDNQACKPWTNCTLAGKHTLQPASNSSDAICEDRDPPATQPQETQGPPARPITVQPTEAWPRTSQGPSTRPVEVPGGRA

T2: mFc-Avi (mouse, UniProt P01863 99-330 = IgG part)
T2 construct: mouse Fc domain with Avi tag; negative control in the ELISA
T2 chain: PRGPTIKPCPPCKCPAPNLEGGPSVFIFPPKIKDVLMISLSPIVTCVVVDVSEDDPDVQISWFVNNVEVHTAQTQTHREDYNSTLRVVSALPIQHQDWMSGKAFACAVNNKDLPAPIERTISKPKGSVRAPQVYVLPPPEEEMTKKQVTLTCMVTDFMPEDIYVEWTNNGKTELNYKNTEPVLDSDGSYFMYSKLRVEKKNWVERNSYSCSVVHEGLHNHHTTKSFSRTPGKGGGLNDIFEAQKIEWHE

T3: cyno CD137 on DO11.10-cCD137 cells (cynomolgus, UniProt Q07011 24-255 (human entry))
T3 construct: full-length cyno CD137 over-expressed on DO11.10 cells; also called cell surface-expressed cyno CD137
T3 chain: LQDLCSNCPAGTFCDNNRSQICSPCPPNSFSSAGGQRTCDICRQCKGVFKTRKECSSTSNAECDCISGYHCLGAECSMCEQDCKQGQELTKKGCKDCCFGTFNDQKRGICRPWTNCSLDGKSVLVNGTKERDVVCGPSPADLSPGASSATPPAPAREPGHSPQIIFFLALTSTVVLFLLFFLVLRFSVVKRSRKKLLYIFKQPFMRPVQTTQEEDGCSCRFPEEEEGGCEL


Legend:
[1] = molecular target: human CD137 on primary human CD8+ T cells (human, UniProt Q07011 24-255); test: cell-based or functional assay
[2] = molecular target: T1, human OX40-mFc; test: ELISA on streptavidin plates, mAb 0.1 to 300 nM
Procedure: (§1) Blocking solution was discarded and a dilution series of anti-CD137 mAb concentrations (0.1 to 300 nM, 3-fold dilutions) was added and incubated for 1 hour at room temperature whilst shaking at 450 rpm. Plates were washed 3× with 300 µl PBS/Tween 0.05%. Goat anti-human IgG (Fc fragment) antibody conjugated to Horseradish Peroxidase (Sigma, A0170) was diluted 1:10000 in PBS and 90 µl was added to the wells. After incubation for 1 hour at 4° C. whilst shaking at 450 rpm, plates were washed 3× with 300 µl PBS/Tween 0.05%, 100 µl TMB substrate (eBioscience, 00-4201-56) was added to each well. The reaction was stopped between 2-10 minutes after addition of TMB by the addition of 50 µl 1M sulphuric acid solution. Optical density (OD) was read at 450-630 nm in a 96-well plate reader within 30 minutes of sulphuric acid addition and analysed using GraphPad Prism software (GraphPad Software, Inc.).

[3] = molecular target: T2, mFc-Avi; test: ELISA on streptavidin plates, mAb 0.1 to 300 nM
Procedure: as §1

[4] = molecular target: T4, streptavidin (UniProt P22629 37-163, limits assumed); test: ELISA on streptavidin plates, mAb 0.1 to 300 nM
T4 construct: negative control in the ELISA; also called Streptavidin plates (Thermo Scientific, 15500)
Procedure: as §1

[5] = molecular target: T3, cyno CD137 on DO11.10-cCD137 cells; test: flow cytometry on DO11.10-cCD137 cells, GMFI vs concentration
Procedure: (§2) Non-specific binding was also assessed by testing binding to DO11.10 cells and HEK293 cells lacking CD137 expression.
(§3) Briefly, DO11.10, HEK293, DO11.10-hCD137 or DO11.10-cCD137 suspensions were prepared in PBS containing 2% BSA (Sigma, A7906) and seeded at 4×10^6 cell/ml with 50 µl/well in V-bottomed 96-well plates (Costar, 3897). mAb dilutions (1·10^-6-100 nM, 10-fold dilutions) were prepared at 2× the final concentration in triplicate in 1×DPBS (Gibco, 14190-094). […] The cells were washed once with PBS and resuspended in 100 µl of PBS containing DAPI (Biotium, 40043) at 1 µg/ml. The cells were analysed using a Canto II flow cytometer (BD Bioscience). Dead cells were excluded and the fluorescence in the FITC channel (488 nm/530/30) was measured. The geometric mean fluorescence intensity (GMFI) values were plotted vs the log concentration of antibody and the resulting curves were fitted using the log (agonist) vs response equation in GraphPad Prism.

[6] = molecular target: T5, human CD137 on DO11.10-hCD137 cells (human, UniProt Q07011 24-255); test: flow cytometry on DO11.10-hCD137 cells, GMFI vs concentration
T5 construct: full-length human CD137 over-expressed on DO11.10 cells by lentiviral transduction; also called cell surface-expressed human CD137
Procedure: as §2, §3
Target sequence in this assay (Q07011 24-255): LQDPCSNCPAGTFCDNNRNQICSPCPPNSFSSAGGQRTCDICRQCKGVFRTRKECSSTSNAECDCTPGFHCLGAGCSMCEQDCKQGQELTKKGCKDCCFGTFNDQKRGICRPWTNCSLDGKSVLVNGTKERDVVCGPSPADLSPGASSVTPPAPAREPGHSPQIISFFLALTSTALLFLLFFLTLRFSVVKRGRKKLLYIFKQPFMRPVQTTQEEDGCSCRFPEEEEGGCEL

[7] = molecular target: T5, human CD137 on DO11.10-hCD137 cells; test: cell binding at 10 nM to DO11.10-hCD137 cells, against the parent FS20-22-49AA/FS30-16

human CD137 on primary human CD8+ T cells, sequence (Q07011 24-255): as above
T4 sequence (P22629 37-163 limits assumed): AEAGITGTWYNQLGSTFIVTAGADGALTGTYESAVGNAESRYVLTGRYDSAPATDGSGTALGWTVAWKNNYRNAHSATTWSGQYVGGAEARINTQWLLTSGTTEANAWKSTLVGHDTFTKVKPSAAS

Activity of non-crosslinked mAbs at 100 nM (hIL-2 pg/ml) [1] [pg/mL]	EC50 (nM), hIL-2 release, primary human CD8+ T cell activation assay, crosslinked mAb [1] [nM]	Emax (hIL-2 pg/ml), crosslinked mAb [1] [pg/mL]	binding result [2]	binding result [3]	binding result [4]	EC50 [5] [nM]	EC50 [6] [nM]	fold change of cell binding at 10 nM against the parent clone [7] [fold]	Binder
509	3.2	10900	no binding (tested: 300 nM)	no binding (tested: 300 nM)	no binding (tested: 300 nM)	0.45	0.24	–	G1AA/FS30-5 (antibody, human IgG1, kappa, L234A L235A, V domains shown, human IgG1 with LALA mutation in CH2; also called FS30-5 mAb) VH: EVQLLESGGGLVQPGGSLRLNCAASGFTFSSYAMSWVRQAPGKGLEWVSAISGSGGSTYYADSVKGRFTISRDNSKNTLYLQMNSLRAEDTAVYYCARSYDKYWGSSMYSGMDYWGQGTLVTVSS VL: EIVLTQSPGTLSLSPGERATLSCRASQSVSSSYLAWYQQKPGQAPRLLIYGASSRATGIPDRFSGSGSGTDFTLTISRLEPEDFAVYYCQQYYSYYPVTFGQGTKVEIKR
402	1.4	4840	no binding (tested: 300 nM)	no binding (tested: 300 nM)	no binding (tested: 300 nM)	0.36	0.21	–	G1AA/FS30-16 (antibody, human IgG1, kappa, L234A L235A, V domains shown, human IgG1 with LALA mutation in CH2; also called FS30-16 mAb) VH: EVQLLESGGGLVQPGGSLRLSCAASGFTFSNYAMHWVRQAPGKGLEWVSTIDPTDGATNYADSVKGRFTISRDNSKNTLYLQMNSLRAEDTAVYYCARSKYYTYMQYVALDYWGQGTLVTVSS VL: EIVLTQSPGTLSLSPGERATLSCRASQSVSSSYLAWYQQKPGQAPRLLIYGASSRATGIPDRFSGSGSGTDFTLTISRLEPEDFAVYYCQQGSRFFPITFGQGTKVEIKR
–	–	–	–	–	–	–	–	< 1.6	FS20-22-49AA/FS30-16 variant, Methionine (100A) to F (bispecific antibody, V domains shown, Single-site variant of the parent mAb^2 FS20-22-49AA/FS30-16) VH: EVQLLESGGGLVQPGGSLRLSCAASGFTFSNYAMHWVRQAPGKGLEWVSTIDPTDGATNYADSVKGRFTISRDNSKNTLYLQMNSLRAEDTAVYYCARSKYYTYFQYVALDYWGQGTLVTVSS VL: EIVLTQSPGTLSLSPGERATLSCRASQSVSSSYLAWYQQKPGQAPRLLIYGASSRATGIPDRFSGSGSGTDFTLTISRLEPEDFAVYYCQQGSRFFPITFGQGTKVEIKR
